Test results reported in US20240383984A1 (Genentech, published 2024).

T1: human FcRH5 (full-length, on cells) (human, UniProt Q96RD9 16-977)
T1 construct: Transfected SVT2/293 cells or endogenous expression (MOLP-2, primary cells); also called SVT2-FcRH5; SVT2-huFcRH5
T1 sequence: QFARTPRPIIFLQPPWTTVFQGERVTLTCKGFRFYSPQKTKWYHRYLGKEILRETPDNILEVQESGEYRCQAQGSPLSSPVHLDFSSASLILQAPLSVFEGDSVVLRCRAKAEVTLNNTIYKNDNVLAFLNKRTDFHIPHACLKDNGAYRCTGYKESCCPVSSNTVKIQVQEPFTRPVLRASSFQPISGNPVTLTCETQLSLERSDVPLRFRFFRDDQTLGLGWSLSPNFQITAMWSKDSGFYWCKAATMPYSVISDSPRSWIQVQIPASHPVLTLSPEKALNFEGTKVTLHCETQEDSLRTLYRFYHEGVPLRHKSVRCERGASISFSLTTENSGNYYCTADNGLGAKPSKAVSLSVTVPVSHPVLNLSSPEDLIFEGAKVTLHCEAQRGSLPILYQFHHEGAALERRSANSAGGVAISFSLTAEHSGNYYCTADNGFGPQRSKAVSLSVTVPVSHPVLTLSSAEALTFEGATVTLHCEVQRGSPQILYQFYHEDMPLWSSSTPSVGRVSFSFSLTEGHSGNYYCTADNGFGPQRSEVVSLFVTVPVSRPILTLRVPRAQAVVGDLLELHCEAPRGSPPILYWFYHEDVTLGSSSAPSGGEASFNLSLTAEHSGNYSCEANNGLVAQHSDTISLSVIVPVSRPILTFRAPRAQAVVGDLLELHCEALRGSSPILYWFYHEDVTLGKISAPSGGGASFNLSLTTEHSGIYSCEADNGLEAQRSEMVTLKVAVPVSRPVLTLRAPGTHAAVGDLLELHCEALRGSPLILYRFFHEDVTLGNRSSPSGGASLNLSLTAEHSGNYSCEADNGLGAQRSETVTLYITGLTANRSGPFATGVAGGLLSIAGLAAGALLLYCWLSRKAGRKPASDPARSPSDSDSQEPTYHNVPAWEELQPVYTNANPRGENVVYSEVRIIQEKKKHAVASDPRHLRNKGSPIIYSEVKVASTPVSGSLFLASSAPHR

T2: human FcRH3 (full-length, on SVT2 cells) (human, UniProt Q96P31 18-734)
T2 construct: whole, on cells; also called SVT2-FcRH3
T2 sequence (looked up): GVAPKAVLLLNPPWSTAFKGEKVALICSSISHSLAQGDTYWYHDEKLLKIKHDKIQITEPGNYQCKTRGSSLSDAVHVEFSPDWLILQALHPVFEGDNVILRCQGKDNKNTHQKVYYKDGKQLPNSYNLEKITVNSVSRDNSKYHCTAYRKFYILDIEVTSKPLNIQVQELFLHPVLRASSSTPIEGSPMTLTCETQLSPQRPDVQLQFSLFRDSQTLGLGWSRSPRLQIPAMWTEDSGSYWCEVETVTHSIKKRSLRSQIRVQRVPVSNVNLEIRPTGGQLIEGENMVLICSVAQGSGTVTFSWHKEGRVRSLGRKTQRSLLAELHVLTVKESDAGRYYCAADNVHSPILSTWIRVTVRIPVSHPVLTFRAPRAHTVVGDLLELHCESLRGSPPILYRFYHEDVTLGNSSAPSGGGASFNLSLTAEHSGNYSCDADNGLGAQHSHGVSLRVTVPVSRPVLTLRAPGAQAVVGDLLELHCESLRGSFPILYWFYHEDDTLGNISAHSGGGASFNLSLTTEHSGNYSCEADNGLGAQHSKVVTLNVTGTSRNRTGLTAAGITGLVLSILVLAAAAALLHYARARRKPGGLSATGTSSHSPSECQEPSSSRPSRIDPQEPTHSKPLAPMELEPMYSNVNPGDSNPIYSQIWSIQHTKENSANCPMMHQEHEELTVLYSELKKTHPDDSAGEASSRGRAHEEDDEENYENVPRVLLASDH

T3: human FcRH1 (full-length, on SVT2 cells) (human, UniProt Q96LA6 17-429)
T3 construct: whole, on cells; also called SVT2-FcRH1
T3 sequence (looked up): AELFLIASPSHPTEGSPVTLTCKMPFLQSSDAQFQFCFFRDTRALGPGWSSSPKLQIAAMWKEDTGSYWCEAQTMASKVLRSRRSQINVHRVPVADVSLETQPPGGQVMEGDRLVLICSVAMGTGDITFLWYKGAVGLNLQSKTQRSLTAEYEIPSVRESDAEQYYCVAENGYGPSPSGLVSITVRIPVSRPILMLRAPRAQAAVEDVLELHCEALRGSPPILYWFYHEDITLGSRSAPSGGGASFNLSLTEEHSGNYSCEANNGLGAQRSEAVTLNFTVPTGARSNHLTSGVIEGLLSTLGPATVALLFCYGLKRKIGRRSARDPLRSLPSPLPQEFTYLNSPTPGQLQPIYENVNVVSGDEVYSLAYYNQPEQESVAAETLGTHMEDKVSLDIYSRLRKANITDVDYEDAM

T4: human FcRH2 (full-length, on SVT2 cells) (human, UniProt Q96LA5 20-508)
T4 construct: whole, on cells; also called SVT2-FcRH2
T4 sequence (looked up): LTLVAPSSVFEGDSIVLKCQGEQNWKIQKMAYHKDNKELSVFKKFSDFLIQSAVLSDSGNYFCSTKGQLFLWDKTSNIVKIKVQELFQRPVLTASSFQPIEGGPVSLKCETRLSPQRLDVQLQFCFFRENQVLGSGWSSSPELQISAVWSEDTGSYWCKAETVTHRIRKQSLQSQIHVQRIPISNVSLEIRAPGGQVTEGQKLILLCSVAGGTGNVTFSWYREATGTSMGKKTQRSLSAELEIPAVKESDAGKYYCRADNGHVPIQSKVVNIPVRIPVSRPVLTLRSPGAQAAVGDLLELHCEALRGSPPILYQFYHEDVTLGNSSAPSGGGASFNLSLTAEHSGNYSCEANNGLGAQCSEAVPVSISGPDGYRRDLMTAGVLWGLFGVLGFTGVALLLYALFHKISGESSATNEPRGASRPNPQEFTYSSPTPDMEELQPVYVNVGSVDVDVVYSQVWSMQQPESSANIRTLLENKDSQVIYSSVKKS


Experiments:
Assay in all cases: FACS, SVT2 cells
[1] = target: T1, human FcRH5 (full-length, on cells)
[2] = target: T2, human FcRH3 (full-length, on SVT2 cells)
[3] = target: T3, human FcRH1 (full-length, on SVT2 cells)
[4] = target: T4, human FcRH2 (full-length, on SVT2 cells)

binding result [1] | binding result [2] | binding result [3] | binding result [4] | Binder
binds | no binding | no binding | no binding | 17B1 (antibody, mouse IgG2a, V domains shown, mouse mAb, Campaign C; recombinant murine IgG2a for SPR) VH: QVQLQQSGPELVRPGVSVKISCKGSGYTFTHYAMHWVKQSHTKSLEWIGMISSSSGNTNFNQKFMDKATMTVDKSSTTAYLELARLTFGDSAIYYCARWSYYALFDYWGQGTTVTVSS VL: ENVLTQSPAIMSASPGEKVTMTCSADSSVDYIHWYQQKSNTSPKLWIYDTSKLASGVPGRFSGSGSGNSYSLTISSMEAEDFATYYCFQGSGYPLTFGSGTKLELK
binds | no binding | no binding | no binding | 15G8 (antibody, mouse IgG2a, V domains shown, mouse mAb, Campaign C; recombinant murine IgG2a for SPR; also called mAb 15G8) VH: EVQLQQSGPELVKPGASVKMSCKASGYTFTNYVIHWMKQKPGQGLEWIGYISPYNDYTKYNEKFEGKATLTSDKSSNTAYMELSSLTSEDSAVYYCARRDYYGSSDYWGQGTTLTVSS VL: QIVLTQSPAIMSASPGEKVTMTCSASSSVDYMHWYQQKSGTSPKKWIYDTSKLASGVPARFSGSGSGTSYSLTIGSMEAEDAATYYCQQWSSNPPTFGGGTKLEIK
